The supplement of paper PMC7125110
± gives the standard error. For some assays here: This sample holds only a part of the variants without activity.

B1: glmS ribozyme (parent)
chain: AUAAAAGCGCCAGAACUACAGAAAUGUAGUUGACGAGGAGGAGGUUUAUCGAAUUUUCGGCGGAUGCCUCCAAA

What was measured:
Conditions in all cases: with glucosamine-6-phosphate
[1] = variants of: B1; test: kcat; higher = faster cleavage; RNA array
In short: (§1)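 Glucosamine-6-phosphate in HEPES/KCl/Mg(OAc)2 buffer, at 40 μM to 10 mM, was flowed over barcoded ribozyme variants transcribed in situ by E. coli RNA polymerase on sequenced MiSeq chips. Tracking was through a hybridised Cy3 probe at 37 °C. kobs, kcat and KM came from exponential decay fits and weighted Michaelis–Menten fits of normalised per-tile medians.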

[2] = variants of: B1; test: KM; higher = weaker cofactor use; RNA array
In short: as §1

[3] = variants of: B1; test: self-cleavage kobs at 640 uM GlcN6P; higher = faster cleavage; RNA array
In short: as §1

[4] = variants of: B1; test: self-cleavage kobs at 2500 uM GlcN6P; higher = faster cleavage; RNA array
In short: as §1

[5] = variants of: B1; test: self-cleavage kobs at 10000 uM GlcN6P; higher = faster cleavage; RNA array
In short: as §1

[6] = variants of: B1; test: self-cleavage kobs at 40 uM GlcN6P; higher = faster cleavage; RNA array
In short: as §1

[7] = variants of: B1; test: self-cleavage kobs at 160 uM GlcN6P; higher = faster cleavage; RNA array
In short: as §1

Variant | kcat [1] [s⁻¹] | KM [2] [µM] | self-cleavage kobs at 640 uM GlcN6P [3] [s⁻¹] | self-cleavage kobs at 2500 uM GlcN6P [4] [s⁻¹] | self-cleavage kobs at 10000 uM GlcN6P [5] [s⁻¹] | self-cleavage kobs at 40 uM GlcN6P [6] [s⁻¹] | self-cleavage kobs at 160 uM GlcN6P [7] [s⁻¹]
A12U C16A A33U A36C G38A G62A U69A C71U | 2.12e-05 ± 1.1e-06 | – | – | – | – | – | –
A12U C50A | 0.000111 ± 2.6e-06 | 1660 ± 130 | 3.27e-05 ± 1.3e-05 | 6.47e-05 ± 1.4e-05 | 9.58e-05 ± 1.2e-05 | – | –
G13A U56A A64G | 0.000331 ± 5.8e-05 | 2310 ± 840 | 8.33e-05 ± 2.5e-05 | 0.000158 ± 3e-05 | 0.000291 ± 6.6e-05 | – | –
C50U U57G | < 1e-05 | – | < 1e-05 | – | – | – | –
A48U U69G | 5.22e-05 ± 2.1e-05 | – | – | 7.45e-05 ± 1.7e-05 | – | – | –
A52U U54A | 0.000204 ± 9.2e-06 | 1670 ± 180 | 5.55e-05 ± 8.3e-06 | 0.000132 ± 2.1e-05 | 0.000172 ± 1.8e-05 | – | –
G13C U30C A52G | 1.64e-05 ± 4.9e-06 | – | – | – | – | – | –
G7A G38A | < 1e-05 | – | – | – | – | – | –
U46G C67G | 0.000343 ± 3.5e-05 | 1360 ± 310 | 0.000112 ± 1.1e-05 | 0.000241 ± 2.8e-05 | 0.000295 ± 2.3e-05 | 2.99e-05 ± 1.3e-05 | 2.86e-05 ± 8.4e-06
A12U A48U | 0.0014 ± 0.00052 | – | 0.00024 ± 3.3e-05 | 0.000479 ± 6.9e-05 | 0.00139 ± 0.00023 | – | 7.62e-05 ± 1.5e-05
A14U G35U | < 1e-05 | – | – | < 1e-05 | – | – | < 1e-05
A53U C58G | 9.99e-05 ± 7.2e-06 | 1390 ± 370 | 2.6e-05 ± 9.5e-06 | 7.16e-05 ± 1e-05 | 8.57e-05 ± 8e-06 | – | –
U31A A48G | 2.21e-05 ± 4.8e-06 | – | – | 3.3e-05 ± 1.1e-05 | 1.74e-05 ± 7.5e-06 | – | –
U31A A48C | 0.000149 ± 3.3e-05 | – | 4.87e-05 ± 1.3e-05 | 7.42e-05 ± 1.5e-05 | 0.00014 ± 2.4e-05 | – | –
A12G G13C | 2.64e-05 ± 6.5e-07 | 2100 ± 230 | – | – | – | < 1e-05 | < 1e-05
G13C C71G | 2.45e-05 ± 2.8e-06 | – | – | – | – | – | –
C16A U31C | 0.000468 ± 0.00021 | – | 6.72e-05 ± 1.1e-05 | 0.000139 ± 2.8e-05 | 0.000418 ± 0.00011 | – | –
A42G A48G | 9.11e-05 ± 9e-06 | – | – | – | 3.86e-05 ± 1.7e-05 | – | –
G32A C67A | 0.000956 ± 0.00011 | 2730 ± 630 | 0.000168 ± 3.4e-05 | 0.000586 ± 0.00011 | 0.000728 ± 8.2e-05 | – | 5.05e-05 ± 1.6e-05

Variant | kcat [1] [s⁻¹] | KM [2] [µM] | self-cleavage kobs at 640 uM GlcN6P [3] [s⁻¹] | self-cleavage kobs at 2500 uM GlcN6P [4] [s⁻¹] | self-cleavage kobs at 10000 uM GlcN6P [5] [s⁻¹] | self-cleavage kobs at 40 uM GlcN6P [6] [s⁻¹] | self-cleavage kobs at 160 uM GlcN6P [7] [s⁻¹]
A12C | 0.042 ± 0.0066 | 2170 ± 410 | 0.00858 ± 0.00027 | 0.0195 ± 0.00085 | 0.0393 ± 0.0013 | 0.000794 ± 1.3e-05 | 0.00261 ± 0.00016
A6U G41U | 4.92e-05 ± 3.2e-06 | – | – | – | – | – | –
C8G G60A | < 1e-05 | – | – | – | < 1e-05 | < 1e-05 | –
G13U A64C | 1.02e-05 ± 3e-06 | – | – | – | – | – | –
U31G G35U C67G | < 1e-05 | – | – | – | – | – | –
A12C G38U | < 1e-05 | 1280 ± 390 | – | – | – | – | –
C50U G66U | 1.12e-05 ± 2.8e-06 | – | < 1e-05 | – | – | – | –
G37U C58U | < 1e-05 | – | – | – | < 1e-05 | – | –
U65C C71U | 0.000792 ± 0.00011 | 1460 ± 510 | 0.000236 ± 4.3e-05 | 0.000617 ± 0.00011 | 0.000659 ± 8e-05 | – | –
U31A C71A | 0.00261 ± 0.001 | – | 0.00049 ± 0.00015 | 0.00162 ± 0.00035 | 0.00252 ± 0.00057 | 8.13e-05 ± 2.1e-05 | 0.000449 ± 0.00013
U57C C68U | 6e-05 ± 5.6e-07 | 1210 ± 64 | – | 3.96e-05 ± 1.4e-05 | 5.36e-05 ± 6e-06 | – | –
G51A C67U | < 1e-05 | – | – | – | – | < 1e-05 | –
A14U U30A | 0.00136 ± 0.00037 | 2250 ± 960 | 0.000337 ± 5.2e-05 | 0.000564 ± 9.8e-05 | 0.00134 ± 0.00021 | 3.62e-05 ± 1e-05 | 8.35e-05 ± 1.7e-05
A12C U47A | 0.011 ± 0.0034 | 1620 ± 740 | 0.00346 ± 0.00056 | 0.00529 ± 0.00087 | 0.014 ± 0.0025 | 0.000246 ± 4.3e-05 | 0.00131 ± 0.00027
C16A | 0.00334 ± 0.00087 | 2630 ± 840 | 0.000602 ± 3.1e-05 | 0.0017 ± 7.8e-05 | 0.00269 ± 8.5e-05 | 6.14e-05 ± 1.3e-06 | 0.000152 ± 5e-06
U31G U55C | 0.00961 ± 0.0014 | 1860 ± 410 | 0.00232 ± 0.00064 | 0.00461 ± 0.0011 | 0.00884 ± 0.0015 | 0.000203 ± 4.2e-05 | 0.001 ± 0.00031
G44U C67A | 0.0253 ± 0.0035 | 1130 ± 210 | 0.00977 ± 0.0013 | 0.0244 ± 0.0065 | 0.0209 ± 0.0036 | 0.000868 ± 0.0001 | 0.00267 ± 0.00064
C16U G66C | 0.000514 ± 9.1e-05 | 657 ± 250 | 0.000282 ± 4e-05 | 0.000496 ± 7.3e-05 | 0.000398 ± 7.3e-05 | – | 9.64e-05 ± 2.1e-05
